Results published in IntAct's records for PubMed 24899623.

B1: Leukocyte immunoglobulin-like receptor subfamily B member 2 (Homo sapiens), Q8N423 (parent)
chain: MTPIVTVLICLGLSLGPRTRVQTGTIPKPTLWAEPDSVITQGSPVTLSCQGSLEAQEYRLYREKKSASWITRIRPELVKNGQFHIPSITWEHTGRYGCQYYSRARWSELSDPLVLVMTGAYPKPTLSAQPSPVVTSGGRVTLQCESQVAFGGFILCKEGEDEHPQCLNSQPHARGSSRAIFSVGPVSPNRRWSHRCYGYDLNSPYVWSSPSDLLELLVPGVSKKPSLSVQPGPVMAPGESLTLQCVSDVGYDRFVLYKEGERDLRQLPGRQPQAGLSQANFTLGPVSRSYGGQYRCYGAHNLSSECSAPSDPLDILITGQIRGTPFISVQPGPTVASGENVTLLCQSWRQFHTFLLTKAGAADAPLRLRSIHEYPKYQAEFPMSPVTSAHAGTYRCYGSLNSDPYLLSHPSEPLELVVSGPSMGSSPPPTGPISTPGPEDQPLTPTGSDPQSGLGRHLGVVIGILVAVVLLLLLLLLLFLILRHRRQGKHWTSTQRKADFQHPAGAVGPEPTDRGLQWRSSPAADAQEENLYAAVKDTQPEDGVEMDTRAAASEAPQDVTYAQLHSLTLRRKATEPPPSQEREPPAEPSIYATLAIH
B2: Leukocyte immunoglobulin-like receptor subfamily B member 2 (Homo sapiens), Q8N423 (parent)
chain: B1 chain
partner: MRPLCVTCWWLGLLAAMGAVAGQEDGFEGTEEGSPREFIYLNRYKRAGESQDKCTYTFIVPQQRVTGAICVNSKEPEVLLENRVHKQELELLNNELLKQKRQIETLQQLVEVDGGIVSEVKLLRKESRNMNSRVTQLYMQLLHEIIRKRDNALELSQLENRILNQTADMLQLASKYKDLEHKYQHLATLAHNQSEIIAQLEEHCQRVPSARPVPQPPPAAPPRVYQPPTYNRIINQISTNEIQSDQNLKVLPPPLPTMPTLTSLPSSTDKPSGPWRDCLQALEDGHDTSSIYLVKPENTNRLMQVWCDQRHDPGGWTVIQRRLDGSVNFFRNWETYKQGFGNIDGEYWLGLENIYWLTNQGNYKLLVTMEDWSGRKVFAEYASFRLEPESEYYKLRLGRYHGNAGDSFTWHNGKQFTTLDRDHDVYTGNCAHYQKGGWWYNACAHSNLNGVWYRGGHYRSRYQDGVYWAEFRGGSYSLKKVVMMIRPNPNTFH

Variants of: B1
Conditions: with angl5_human ANGPTL5, Q86XS5
Sequence of angl5_human ANGPTL5, Q86XS5 (Q86XS5 whole entry): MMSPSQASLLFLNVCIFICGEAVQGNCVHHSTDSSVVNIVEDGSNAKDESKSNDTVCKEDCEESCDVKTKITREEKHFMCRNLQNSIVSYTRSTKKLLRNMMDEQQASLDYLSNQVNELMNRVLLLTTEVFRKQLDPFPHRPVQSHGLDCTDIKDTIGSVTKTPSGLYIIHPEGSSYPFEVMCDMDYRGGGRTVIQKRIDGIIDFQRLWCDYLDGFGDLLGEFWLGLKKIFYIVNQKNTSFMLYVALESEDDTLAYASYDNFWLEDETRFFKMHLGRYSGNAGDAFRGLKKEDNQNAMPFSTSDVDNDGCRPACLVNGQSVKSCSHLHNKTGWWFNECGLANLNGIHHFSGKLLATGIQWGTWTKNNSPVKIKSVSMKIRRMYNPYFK

Row | effect of a mutation on the interaction | Variant
1 | decreasing interaction strength | Y394A
2 | disrupting interaction strength | Y96A;G392D
3 | decreasing interaction strength | T393E
4 | decreasing interaction strength | Y100G
5 | decreasing interaction strength | R95E
6 | decreasing interaction strength | G392D
7 | disrupting interaction strength | G94D
8 | decreasing interaction strength | R59A;Y61A;W90A;D200A;N202A;Y205A
9 | decreasing interaction strength | Y96A
10 | decreasing interaction strength | T93A
11 | with no effect | R59A;Y61A
12 | decreasing interaction strength | Q99R
13 | decreasing interaction strength | H92S
14 | with no effect | G97R
15 | disrupting interaction strength | Y96A;Y394A
16 | disrupting interaction strength | Y96A;T393E
17 | decreasing interaction strength | W90A;D200A;N202A;Y205A

Variants of: B2
Conditions: with angl2_human ANGPTL2, Q9UKU9

Row | effect of a mutation on the interaction | Variant
18 | with no effect | Q99R
19 | with no effect | W90A;D200A;N202A;Y205A
20 | decreasing interaction strength | H92S;T93A;G94D;R95E;Y96A;G97R;Q99R;Y100G
21 | with no effect | H92S
22 | decreasing interaction strength | R59A;Y61A
23 | increasing interaction strength | T93A
24 | disrupting interaction strength | Y96A;G392D
25 | decreasing interaction strength | R95E
26 | decreasing interaction strength | G94D
27 | disrupting interaction strength | Y96A;Y394A
28 | decreasing interaction strength | Y96A
29 | with no effect | G97R
30 | decreasing interaction strength | Y394A
31 | with no effect | T393E
32 | decreasing interaction strength | Y96A;T393E
33 | with no effect | G392D
34 | decreasing interaction strength | R59A;Y61A;W90A;D200A;N202A;Y205A
35 | decreasing interaction strength | Y100G
